Measured values as given in paper PMC3959867 (Science (New York, N.Y.), 2012).
Blank lines part the entries; values can stand above or below the molecule they belong to.

Assays:
[1] = molecular target: K11V-TR, cylindrin tandem repeat V2L variant; test: native MS
[2] = molecular target: K11V-TR, cylindrin tandem repeat V2L variant; test: SEC
[3] = molecular target: K11V-TR, cylindrin tandem repeat V2L variant; test: crystal structure
crystal structure = molecular target: the molecule itself; test: crystal structure

stoichiometry N [1]: 3
stoichiometry N [2]: 3
stoichiometry N [3]: 3
Molecule: K11V-TR, cylindrin tandem repeat V2L variant (peptide)

B1: G6V, six-residue segment GDVIEV of alphaB crystallin (peptide)
chain: GDVIEV
binding result (crystal structure): binds
